Laboratory results: the supplement of paper PMC7877785
± gives the uncertainty stated by the source.

Assay: self-splicing fitness, log relative to wild type (ln ratio); higher = more splicing; Tetrahymena group I intron in knt gene, E. coli kanamycin selection, DiMSum; sequences stand for … in CUCUCU…GGAGGGAAAAGUUAUCAGGCAUGCACCUGGUAGCUAGUCUUUAAACCAAUAGAUUGCAUCGGUUUAAAAGGCAAGACCGUCAAAUUGCGGGAAAGGGGUCAACAGCCGUUCAGUACCAAGUCUCAGGGGAAACUUUGAGAUGGCCUUGCAAAGGGUAUGGUAAUAAGCUGACGGACAUGGUCCUAACCACGCAGCCAAGUCCUAAGUCAACAGAUCUUCUGUUGAUAUGGAUGCAGUUCACAGACUAAAUGUCGGUCGGGGAAGAUGUAUUCUUCUCAUAAGAUAUAGUCGGACCUCUCCUUAAUGGGAGCUAGCGGAUGAAGUGAUGCAACACUGGAGCCGCUGGGAACUAAUUUGUAUGCGAAAGUAUAUUGAUUAGUUUUGGAGUACUCGUGGUCG
Method in brief: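 Six replicate transformations of E. coli BL21(DE3) with a pET-22b(+) library were grown overnight at 37°C or 30°C. The library randomised all eight P1ex-region intron nucleotides, the intron lying in the knt kanamycin-resistance gene, and plates were LB agar with or without 25 μg/mL kanamycin plus 100 μg/mL carbenicillin, 50 μM IPTG and 0.2% rhamnose. Pooled colonies were amplicon-sequenced on an Illumina HiSeq 2500, and fitness is the DiMSum error-weighted combination of wild-type-normalised replicate fold changes, kanamycin versus none.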

| Sequence | self-splicing fitness (ln) (37 °C) | self-splicing fitness (ln) (30 °C) |
| --- | --- | --- |
| GGGGAGCAAUAUUACGCGAU | -0.791 ± 0.24 |  |
| GGGGAGCAAUAUUACGCGUA | -1.13 ± 0.3 | -1.53 ± 0.38 |
| GGGGAGCAAUAUUACGCGUU | -1.04 ± 0.14 | -2.88 ± 0.13 |
| GGGGAGCAAUAUUACGCUGC |  | -2.22 ± 0.45 |
| GGGGAGCAAUAUUACGGACU | -0.621 ± 0.22 | 0.0915 ± 0.28 |
| GGGGAGCAAUAUUACGGCCA | 0.555 ± 0.21 | -0.941 ± 0.2 |
| GGGGAGCAAUAUUACGGGGC | -2.2 ± 0.27 | -2.92 ± 0.37 |
| GGGGAGCAAUAUUACGGUAU | -2.23 ± 0.39 |  |
| GGGGAGCAAUAUUACGGUUA | -2.75 ± 0.31 | -1.34 ± 0.26 |
| GGGGAGCAAUAUUACGUACA | -1.76 ± 0.49 | -1.75 ± 0.2 |
| GGGGAGCAAUAUUACGUCGG | -1.07 ± 0.36 |  |
| GGGGAGCAAUAUUACGUGCA | -1.08 ± 0.17 | -3.32 ± 0.25 |
| GGGGAGCAAUAUUACGUGCG | -1.54 ± 0.27 | -1.61 ± 0.14 |
| GGGGAGCAAUAUUACGUUCU | -0.226 ± 0.35 | -2.67 ± 0.43 |
| GGGUAGCAAUAUUACGAACA | -0.706 ± 0.39 |  |
| GGGUAGCAAUAUUACGACUG | 0.222 ± 0.18 | 0.0705 ± 0.13 |
| GGGUAGCAAUAUUACGACUU | 0.345 ± 0.16 | -1.03 ± 0.13 |
| GGGUAGCAAUAUUACGCACU | -0.577 ± 0.29 | -3.8 ± 0.47 |
| GGGUAGCAAUAUUACGCCAA | -0.0896 ± 0.15 | -0.499 ± 0.16 |
| GGGUAGCAAUAUUACGCGGU | -1.4 ± 0.2 | -3.15 ± 0.21 |
| GGGUAGCAAUAUUACGCUAG | -1.24 ± 0.26 |  |
| GGGUAGCAAUAUUACGGAAG | -1.87 ± 0.45 | -3.46 ± 0.35 |
| GGGUAGCAAUAUUACGGCGG | -2.12 ± 0.28 | -2.35 ± 0.24 |
| GGGUAGCAAUAUUACGGCGU | -0.386 ± 0.12 | -0.56 ± 0.13 |
| GGGUAGCAAUAUUACGGGGG | -2.09 ± 0.25 | -2.97 ± 0.24 |

| Sequence | self-splicing fitness (ln) (37 °C) | self-splicing fitness (ln) (30 °C) |
| --- | --- | --- |
| GGGUAGCAAUAUUACGGUAA | -0.587 ± 0.1 | -1.28 ± 0.12 |
| GGGUAGCAAUAUUACGGUAC | -0.23 ± 0.15 | -2.04 ± 0.12 |
| GGGUAGCAAUAUUACGGUGA | 0.155 ± 0.16 | -1.74 ± 0.19 |
| GGGUAGCAAUAUUACGUAAC | -0.795 ± 0.22 | -1.07 ± 0.15 |
| GGGUAGCAAUAUUACGUCAU | -0.742 ± 0.081 | -0.733 ± 0.07 |
| GGGUAGCAAUAUUACGUCCC |  | -0.987 ± 0.29 |
| GGGUAGCAAUAUUACGUGAU | -0.239 ± 0.18 | -2.64 ± 0.19 |
| GGGUAGCAAUAUUACGUUGA | -0.495 ± 0.11 | -2.44 ± 0.16 |
| GGUAAGCAAUAUUACGAAAG |  | -3.68 ± 0.47 |
| GGUAAGCAAUAUUACGAAUA | -0.561 ± 0.27 | -1.25 ± 0.26 |
| GGUAAGCAAUAUUACGACAC | 0.285 ± 0.19 | -0.00191 ± 0.13 |
| GGUAAGCAAUAUUACGAGAC | -0.652 ± 0.27 | -1.71 ± 0.39 |
| GGUAAGCAAUAUUACGAUUA | -0.221 ± 0.11 | -0.734 ± 0.094 |
| GGUAAGCAAUAUUACGCUCU | -2.16 ± 0.35 | -3.29 ± 0.32 |
| GGUAAGCAAUAUUACGGAAC | -0.543 ± 0.21 | -1.55 ± 0.17 |
| GGUAAGCAAUAUUACGGACA | -0.0615 ± 0.15 | -0.53 ± 0.13 |
| GGUAAGCAAUAUUACGGCAG | -2.49 ± 0.45 | -3.62 ± 0.43 |
| GGUAAGCAAUAUUACGGUCA | 0.416 ± 0.11 | -0.727 ± 0.1 |
| GGUAAGCAAUAUUACGGUUC | -0.621 ± 0.17 | -0.52 ± 0.16 |
| GGUAAGCAAUAUUACGUCUU | -0.802 ± 0.12 | -0.148 ± 0.1 |
| GGUAAGCAAUAUUACGUUAG | -1.72 ± 0.19 | -3.15 ± 0.18 |
| GGUCAGCAAUAUUACGAAGC | -0.0665 ± 0.13 | -0.892 ± 0.11 |
| GGUCAGCAAUAUUACGACGC | -0.318 ± 0.18 | -0.817 ± 0.13 |
| GGUCAGCAAUAUUACGAGCG | -0.0123 ± 0.094 | 0.269 ± 0.081 |
| GGUCAGCAAUAUUACGAGGG | -2.35 ± 0.25 |  |

| Sequence | self-splicing fitness (ln) (37 °C) | self-splicing fitness (ln) (30 °C) |
| --- | --- | --- |
| GGUCAGCAAUAUUACGAGUG | -1.44 ± 0.11 | -2.56 ± 0.1 |
| GGUCAGCAAUAUUACGAUUU | 0.21 ± 0.088 | 0.377 ± 0.062 |
| GGUCAGCAAUAUUACGCAGG | -3.55 ± 0.3 |  |
| GGUCAGCAAUAUUACGCCGU | -0.39 ± 0.15 | -2.61 ± 0.16 |
| GGUCAGCAAUAUUACGCUAG | -2.91 ± 0.34 | -3.43 ± 0.26 |
| GGUCAGCAAUAUUACGCUCA | -0.0519 ± 0.17 | -1.15 ± 0.12 |
| GGUCAGCAAUAUUACGGACA | -0.179 ± 0.17 | -0.754 ± 0.19 |
| GGUCAGCAAUAUUACGGGUC | -1.58 ± 0.16 | -1.54 ± 0.13 |
| GGUCAGCAAUAUUACGGUGA | -1 ± 0.11 | -0.695 ± 0.074 |
| GGUCAGCAAUAUUACGUCAC | -1.77 ± 0.39 |  |
| GGUCAGCAAUAUUACGUCCU | -1.85 ± 0.29 | -2.63 ± 0.31 |
| GGUCAGCAAUAUUACGUGGU | -2.17 ± 0.23 | -2.54 ± 0.18 |
| GGUCAGCAAUAUUACGUUUU | -0.202 ± 0.078 | -0.899 ± 0.073 |
| GGUGAGCAAUAUUACGAAAU | -2.78 ± 0.38 | -2.21 ± 0.31 |
| GGUGAGCAAUAUUACGAAUC | -2.04 ± 0.4 |  |
| GGUGAGCAAUAUUACGACUC | -0.634 ± 0.22 | -1.13 ± 0.15 |
| GGUGAGCAAUAUUACGAGGC | -0.336 ± 0.33 |  |
| GGUGAGCAAUAUUACGAGUU | -0.657 ± 0.16 | -2.39 ± 0.27 |
| GGUGAGCAAUAUUACGAUCU | -0.809 ± 0.27 | -0.331 ± 0.18 |
| GGUGAGCAAUAUUACGCAAG | 0.418 ± 0.23 |  |
| GGUGAGCAAUAUUACGCAGA | -2.52 ± 0.33 | -2.51 ± 0.31 |
| GGUGAGCAAUAUUACGCUUC | -2.51 ± 0.39 |  |
| GGUGAGCAAUAUUACGGGCU | -2.67 ± 0.44 | -2.81 ± 0.19 |
| GGUGAGCAAUAUUACGGGGC | -1.01 ± 0.32 |  |
| GGUGAGCAAUAUUACGUACG | -0.434 ± 0.25 | -0.28 ± 0.23 |

| Sequence | self-splicing fitness (ln) (37 °C) | self-splicing fitness (ln) (30 °C) |
| --- | --- | --- |
| GGUGAGCAAUAUUACGUAUA | -3.25 ± 0.37 | -3.76 ± 0.29 |
| GGUGAGCAAUAUUACGUCCA | -2.07 ± 0.096 | -2.91 ± 0.24 |
| GGUGAGCAAUAUUACGUGAG | -1.76 ± 0.21 | -2.73 ± 0.19 |
| GGUGAGCAAUAUUACGUGCA | -0.496 ± 0.14 | -0.986 ± 0.12 |
| GGUGAGCAAUAUUACGUGUC | -1.99 ± 0.32 | -3.03 ± 0.26 |
| GGUGAGCAAUAUUACGUUAC | -0.718 ± 0.24 | -3.12 ± 0.47 |
| GGUUAGCAAUAUUACGACGA | 0.349 ± 0.21 | -1.15 ± 0.18 |
| GGUUAGCAAUAUUACGAGCU | -1.69 ± 0.32 | -2.61 ± 0.29 |
| GGUUAGCAAUAUUACGAUAC | -0.0363 ± 0.19 | -0.314 ± 0.22 |
| GGUUAGCAAUAUUACGAUAU | -0.137 ± 0.13 | -0.423 ± 0.1 |
| GGUUAGCAAUAUUACGCAUA | -0.182 ± 0.14 | -0.622 ± 0.12 |
| GGUUAGCAAUAUUACGCCAA | -2.43 ± 0.33 | -1.42 ± 0.34 |
| GGUUAGCAAUAUUACGCGGA | -1.34 ± 0.23 | -1.4 ± 0.31 |
| GGUUAGCAAUAUUACGGAAU | -1.01 ± 0.25 | -2.21 ± 0.25 |
| GGUUAGCAAUAUUACGGGCC | -1.47 ± 0.29 | -2.52 ± 0.27 |
| GGUUAGCAAUAUUACGGGGA | -2.49 ± 0.29 | -2.05 ± 0.25 |
| GGUUAGCAAUAUUACGGUCU | 0.162 ± 0.15 | -0.263 ± 0.12 |
| GGUUAGCAAUAUUACGGUGA | -0.0195 ± 0.13 | -1.49 ± 0.13 |
| GGUUAGCAAUAUUACGGUUC | -0.114 ± 0.11 | -0.571 ± 0.086 |
| GGUUAGCAAUAUUACGUACG | 0.0535 ± 0.18 | -0.392 ± 0.14 |
| GGUUAGCAAUAUUACGUAUG | -0.52 ± 0.15 | -3.18 ± 0.17 |
| GGUUAGCAAUAUUACGUCCU | -0.367 ± 0.12 | -1.2 ± 0.12 |
| GGUUAGCAAUAUUACGUUUC | -0.645 ± 0.18 | -3.04 ± 0.21 |
| GUAAAGCAAUAUUACGACUU | 0.464 ± 0.12 | 0.245 ± 0.1 |
| GUAAAGCAAUAUUACGAGUA | -0.624 ± 0.14 | -1.11 ± 0.12 |
